Target: retromer–SNX3 complex (VPS26A, VPS35-VPS29 fusion, SNX3) (human) (UniProt Q96QK1)

Binder	mean tube length per liposome (liposome tubulation with retromer and SNX3) [nm]	proportion of liposomes tubulated (cryo-EM; 2.5 uM retromer, 8.75 uM SNX3, 25 uM peptide, 600 uM liposomes, overnight at 4°C; n = 3) [%]	proportion of liposomes tubulated (cryo-EM; liposomes with retromer, SNX3 and the peptide lacking the motif) [%]
KRQKGKPKRKSKYKILDAT [AAVR cytosolic tail peptide (residues 956-974)]	503	3.54	–
KRQKGKPKRKSK [AAVR cytosolic tail peptide lacking the predicted sorting signal (residues 956-967)]	–	–	0
AQPELYLLNTMDADSLVSR [DMT1-II cargo peptide (residues 550-568)]	568	4.15	–

From paper PMC13483459
